assay: soluble on expression in E. coli; label from the status in PepcDB or PDB records

Sequence	soluble on expression in E. coli
MCRIPVMIVSQPKQLKALSDPTRIKILELLREHPMSVSEIAERLGRDKSTVYRHIKALEDAGLVEVVEKIGNEVVYGRVAYVFLLVPNSNKEIEDLRRAYLSREVEKLIEVLEDSGIRIRDKEKFRSIVQKVFRDIENQSQHILSRLMNSSFDEIALIHILNFLTFLYSHKYVEESKQLFKLLDI	soluble
MCSKQSANQQISYRQTAEATLDKGMDNQPEAPYWFPKQLLKWQLSKDKAAKYNTASVPLAKRIDKWQLPTVNKTQDPKMKVVALSIMNSSTSGNAPRGINTFDANVFSNWQYIDQLVYWGGSAGEGLIVPPTADVIDSAHKNGVPVLGTVFFPQVVSGGKLKWLNDFLKQDADGHFPMADKLVAVAKAYGFDGWFINQETDPEVKSFDSASTGKTATSSTSNGLSKKHAQLMQQLIKEYKQKAGSKLDLMWYDSMTKDGKMDWQNALTKENQSYLVDANMKPVADSMFLNFWWTKKRLASQELLKKSHERAEKLGISPYNLFAGIDVQADGTATPVRWNLFANKQHVPYTSLGLYAPDWTHASSDTVDEFQAKEGALWVNLEHHHHHH	soluble
MCSTFMHKFYNSFYFGVMLTTRKEEQMLSKIVWSLLKPQLSSRSYLYNKFVVPPLQIIYVQ	soluble
MCTALMAIPEDGDTEVVSEKTFKVFSLLNLDAPYLHDKAHVTEEEEITGCCGRRKGALIATMQVDEIGVMPGMTSKISLTVENKTKKRKKWMRKKDNHECVLLSLCQQLDFVAVNRNDPMMIDRKSITIAVESHGTCKTKAGVGPQTKEIEFSVPPNLPPTSIHANRLVTVSYFFKLDLDHFDLVLPVIVGSVKSSASNGSEK	not soluble
MDAEGNLFMSWRDGGTFGIARINEQQNIVTPLIEADAANRILYANGLTVDRATGMLTAAHESVKEVTFTFDPREAWYPRQRNIKYSQSDLNSIVDADRYKNFVTFCPYDGYLYTRYRDGKIAKIDPNTFEGHIIHQGPSGSQYGQAINPAKPWLLYITLHSNAPTAYRQGISVLDLRDPDGTGGFKRLNAPGGSAFRDGPIEDALFNYPKDIKFDNDGNMFVADYGNHCIRMISADNIVTTVAGQPGVAGYKDGGPVESLFKNPWGVAVNEQGDIYIADWGNARIRKLVIELEHHHHHH	not soluble
MDALVIRNPELLADALRGLSQSPKRMEPKWFYDAEGSALFERITELPEYYPTRTETAILTAGADRLAAHVPEGAELVELGSGASVKTRLLLDRLTGLSAYVPVDISASFLKETARALARDYPDLPIHPVVADFTKPLRLADEGHPRVGFFPGSTLGNLDPEGARALMRGVRDWPGIRGFIVGIDLIKDEDTLVRAYDDAAGVTAAFNLNLLHRMNREIGADFDPDRFAHRAIWNAEKARIEMHLESLEDQEVQIGPRRIRFRAGETIHTENSHKFSATSFAERAAEAGWRLADFLTDARRQFGVAVLEPA	not soluble
MDAQTFKTAIVRRRLVDVLMNPELKATLVLKNGLVINVVTREIYPADVAVYDEYILKVGDASDLIGPETEVVDLQGKYYVSPGFIDSHMHFESSMLTISEFSRLSIPSGTTTLVADPHEIGNALGPVGIKAMAEETKVVPNRVYLVVPALTPDCPGLETAGYDITSRDMPEILNYPNVIGIGELQGFSNAKYVYKYTPEIITDLIASTTYAKSIGKIVDGNAPELFGSELAAHLIAAGTEASCHETTTKEECVEKLRYGMYVFMREGSTQKNMAECIRAVTEEGLDSRRLIGATDDMVAEDLAKNGHMNWVVARIIKQGIDPVEAIQMVTINPATYFGLKHVGVLAPGKMADIVVISDLMDMKVEKVYIGGKLVAEKGKMVVNIPKYTYPEEVKHSVKCKPVTAEALEIKATGSNAVVRTIGLIPDQNLTESFEFTVPVSGGVAQPDLTQDVLPIAVVERYGRNGSIGRAFVRGFGLKGGAFAESVSHDAHNIIVVGTSYQDMALAVNRVIEMGGGVAVVKNGRVLGDLRLPVGGLITDELDGYELSRKIAELHRLTAVELGCTVHAPFMHLSFLALTTSPKWKITDQGLIDVNSFAIIPPVK	soluble
MDDILVTSDLTSRYKISRKTLWSWQSADTMPRGFVCPFPPPDWPGNPNRWRSESIKEWEDKKKIN	not soluble
MDDLASQSFPEPERAIMKATYQVLCEYGYADLTIQQIADEYGKTTTAVHYHCDTKNKLLTAFLDYLLEELADSVHNIRTTNPENRLKFLLDELLVKSKNEPVLSIALLEMQSQTPYKEPFRERFKQMAVVNRQTELDFTVSETA	not soluble
MDEGMQIVGAVSGLSTPFNQNVSLECYNGILSMLLNGAPLADILHALVLKIEDQRLGTHASVLLLSEDGKRVLTGAAPHLPDSYNQVIHGVEIGPEVGSCGTAAYTGQRVIVEDIEHHPYWALYKSFALVHGLRACWSEPIKDTQGKVLGTFAMYYKEIKSPTVADLTLIAEAARLASLAIERSRSLEFQRLAVKIFDRLPLALVITNASHSVLYANDAFKLMVCLQPDDILAFNPEQFFSPSEPHEIASLFNHLSEGKMWQGELVGLRNNGETFYLDLTVTVFRESHSADLGFAWLFSDVSERKKAAQLIKYQANNDSLTGLANRNALFRQIQELINADSLTPGFSFMLMDLDNFKQVNDTYGHDKGDVLLVQMVEQVKICLDPQAVFARLGGDEFAILLPGVVTQRELSQLADKINKQVYRRYELSHDKGVYSSVSIGIARFPEDALDLEQLLNCADQAMYISKANGRNRYHFFTEQMQQNAERIANLHTLLKQALEQNAFELYFQPIVDATTGLIVRAEVLLRWQHEGQFISPDEFIPIAENSGLIVSIGRCVRQAVMQTIVEMQALGWPMSLAINVSTFEFWSHELQDEFCDSFTDIIEGLGVEDFPYELITLEITESLLMKKHAHLIQVLNELRARGIKISLDDFGTGYSSLSYLANFPIDQIKIDKSFIDRLAEGERHLALIEAIVRLSHALNLRVTAEGVETQEQLQVMMDNHIQEIQGYLFYKPIPKAVFFELLAKQAVISPHSLEHHHHHH	not soluble
MDENALRFASYWRNSLADAESGKGCFERKDAQNFTHWHGIAAGRLDEAIVNKFFKGEKDDVETVNVILRPKVYFRLLQHGKDRSAGTPDIVTPIVTPALLSREGFLYPTPATSIPRDLLEPLPKGAFSIGEIGQYDKYKTTHTDPTHVMWTRP	not soluble
MDFEQLKQDVIAYSKTIGIDKIGFASASPFEELKQRLIQQQQLNYQSGFEEPDIEKRTNPQLLLPGAKSIIAIALAYPSKLKNAPLSKRGERRGIFCRASWGQDYHLVLRDRLQKLEAYLIEKLPDIEVKSMVDTGELSDRAVSERAGIGWSGKNCSIITPEFGSYVYLGEMITNVPFPPDKPIEDQCGGCTKCIDICPTGALIQGGQLDSKKCIAFLTQTKGFLPEEYRDKIGNRIYGCDTCQTVCPKNKGMDFHNHPEMEPDPELVKPLLTPLLTISNRDFKEKYGIMSGSWRGKKPLQRNAILALAHFKEASAIPDLIGVMKDDPRPVLRGTAAWALGKIGGDGVGEAIEKAMEREKDEEVLHEMNRGLELLAQKKE	not soluble
MDFKASGTKFKKTGKKVVPAKAFEEIVQTNRDVLKKSAFLSDLLENLQPHLNNIKKIRCVAIGNFKEDFPATYQFALLLEITDYIKSEDERDVVVSLYDPIFTKEEIQYLKSLGSKWLIEEEFSENDAIDYESVLYFLPHAPLDLTENILSSQRPHLWLANNMISHTDRYTKAKLCENYPNLSKLVHYLQTNAPPEVKKAHDVDGFATFIPKRKRKNRNNSSKLKVTPSDIDYDSIAPKFKSCQILTDFDEGKYLKEKPWINSFSDLTLHAIEY	not soluble
MDGAQPKTNFFERLIARLAREPDSAEDVLNLLRQAHEQEVFDADTLTRLEKVLDFAELEVRDAMITRSRMNVLKENDSIERITAYVIDTAHSRFPVIGEDKDEVLGILHAKDLLKYMFNPEQFHLKSVLRPAVFVPEGKSLTALLKEFREQRNHMAIVIDEYGGTSGLVTFEDIIEQIVGDIEDEFD	soluble
MDGELRAQGLRKRYGPKEVVRGVDLALRRGEIVALFGPNGAGKTTTFYMVVGFIRPTGGRIYLKGQEITALPMYKRARLGLGYLPQEPSAFRRMTALENLLAVLEFQPLSKKERLEKAKALLEELSIYHLRDRMAYSLSGGERRRLEIARALATDPDFLLLDEPFTGVDPKNVREIQKVIAELRERRGVGVFITDHAVRETLAITDRVYLMYDGQVLFHGDPETFAKDQGVRRHYLGEDYEL	soluble
MDGFDASPKAIAARRAKVFDPVGGYEYFVNTYFPHYIRSPEKSELHAFLFSRLPEIIRSPKGENEAVGAPRGEGKSTKVTQLFTLWCIVTGQKHYAVIVMDSIDQAYPMLEAIKAELEFNPRLKTDFPEVCGQGRVWQAGTIVTANDVKVQVAGSGKKLRGLRHGPYRPDLTVLDDIENDEQVRNPEQRDKLNAWLTKTVLPLGGVGQKYDVIYIGTILHYDSVLNRTLNNPFWHGIKFKAMKRWPDRMDLWDRWEELFRNDGETVAEAFYQANKDEMERGAVTSWAARGVLALMKIRARDGHATFDSEYQNDPVSGEDAPFAKSMKFWNDLPSDLVYFGALDPSLGKAGASRDPSAIIIGGYQRVTGKLYVVEAQIKKRLPDLIIEDVIRLHRQYRCKLWFVETVQFQEFLKDELVKRSAARGIPVPARAVKPVSDKLLRIETLQPHMANGLILLNESQQTLIQQFRHFPKADHDDGPDAVHMLWSGAVANCVPIEWQSPTDNDFDDEIKSKWSR	not soluble
MDHQLSQHDIFISQDGQLQLTVAVDTETVWLTQAEICVLFDRERSVITKHINNVFKEGELERDSVCAIFARTADDGKTYQTQYFNLDVIISVGYRVKSKRGVQFRQWATNTLKQHLLQGYTLNQQRLVQRGIEFNQALALLSKTLTNQALINPDGQAVVNVIAEYARSWSLLQGYDEQSLTEITHKQQQMQPLALDEVLAAIAALKTNLIAKGEATDLFAQLRGNGLASSIATIEQGFGGEWFYPNVASRAAHLLYFIIKNHPFADGNKRTGSFLFLWYLQQNQHLLAKPVSEQINDTTLVALALLVAESLPDQKELMIRLIEHFILLKDSEAAALEHHHHHH	soluble
MDIAKWVEHARTCYSTQLDTKIKVIGVIGKDYPDHGKGDNINCYLRENVFPVAATEDETCTIRGHFSEDDQILFLVMNGVDDVANIRKCLKSNPKSNYFDAMAESECQQIRMLHFLFISCHFIIIFEQTSRIDLELMRFLKKVNSARIQLRKKINQRLVASDLRDVSFNNRILSSAESEGRMVVPRLLIAFQRNNIRPDVNPGKKRELYEKLEKNLDNQFSDILKLYDLIDCGASSLCQLNETIPVVHLLNPKIVKRDIIGEMFEILMADAENTKISGNAGTLPSNNSFVKFLEDNFRSEKNEISLENVIELMNCLQCVLDGDLEEKHEKTAIQTFIKRIQNDHMEEARRLYTNAQRPGERRGADRFKDSEKPVKIRSKEEHLMRVEKPKKFCIFISFQNVLQFNEATHYIDSVVGVNSREALSQLQAQCNEMWQSDMRACESVSMMGRSCVRKIHPTFGDQTAPEHRWTAHDASNTMISTCVCGRKQLIRPEPFSVKEANSDFYDHPDFKCCRRLWRYQFQLYQEDSEEKDDIMWADRESNSLRAAKKMAQREDELAEEDTDLDIPESLLDPDSTSPSDEDDVRVRTMSSSESSSQESDAYLRPTSRRDESMASKTERELTIDHVKRMQKLELAGKSEDFLITVPNSMTTGKLPIFPSWHLTSLGDSSIYSHGAGLKNQPNFKIGGDYLSPVVVLLDVNFDVWNRDLNKIRSEDFSRKCGKDNKDDSARVKLFVGFEYECSRGHRFFVDYNGEPLIYSKGSNVIRESAHRSSLGNVLQADLPIRRPCTCRKLPLQSAQLQKVHVVTPKAPVHITIDPKVLIPTHEGVYGTGQEPLELHHSKYYILHLPTVYSGPSGAWMPGEFNPEKQGVWMGGALKVAYKPVMSFKW	not soluble
MDIDMNYPSITTLMSNESANLLIIWGNATPDISYLSYTTNPMLGDYVLNVSAINGCTEELIATHLVPTLENATQWVYDAGEYWDNYSFTDESTPLPGLSWPFNE	not soluble
MDIIRLGDTTSHGGTVIEAFGQTDLNGKPMAGVGHQVVCPLCKGTFPITEGSALLDVNGVPVALHGMKTACGASLIASGPLGAAEN	not soluble

From the DeepSol protein solubility set
